T1: sN-TALER IV-1 (GinH106Y-TALE13) (synthetic)
T1 chain: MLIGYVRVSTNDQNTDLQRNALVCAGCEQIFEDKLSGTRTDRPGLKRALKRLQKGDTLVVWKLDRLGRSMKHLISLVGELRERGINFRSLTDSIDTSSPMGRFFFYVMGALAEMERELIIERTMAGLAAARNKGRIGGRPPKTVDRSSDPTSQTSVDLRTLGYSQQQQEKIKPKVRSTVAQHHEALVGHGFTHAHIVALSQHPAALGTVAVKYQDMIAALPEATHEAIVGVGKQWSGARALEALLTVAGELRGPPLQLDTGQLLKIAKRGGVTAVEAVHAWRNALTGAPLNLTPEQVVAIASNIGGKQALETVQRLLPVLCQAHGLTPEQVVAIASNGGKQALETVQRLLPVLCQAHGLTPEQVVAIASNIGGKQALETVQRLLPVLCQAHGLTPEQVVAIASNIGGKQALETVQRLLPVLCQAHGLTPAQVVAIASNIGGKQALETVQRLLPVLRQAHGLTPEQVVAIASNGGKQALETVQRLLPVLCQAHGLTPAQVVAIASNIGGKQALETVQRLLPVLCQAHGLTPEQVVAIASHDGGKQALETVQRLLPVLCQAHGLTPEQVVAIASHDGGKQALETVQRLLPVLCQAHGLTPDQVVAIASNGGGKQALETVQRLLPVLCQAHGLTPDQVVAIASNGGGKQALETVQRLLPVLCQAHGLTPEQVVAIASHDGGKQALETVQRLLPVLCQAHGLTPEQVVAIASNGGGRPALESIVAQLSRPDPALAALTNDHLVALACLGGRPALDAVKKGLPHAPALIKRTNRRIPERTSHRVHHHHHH

T2: sN-TALER IV-2 (GinH106Y-TALE13) (synthetic)
T2 chain: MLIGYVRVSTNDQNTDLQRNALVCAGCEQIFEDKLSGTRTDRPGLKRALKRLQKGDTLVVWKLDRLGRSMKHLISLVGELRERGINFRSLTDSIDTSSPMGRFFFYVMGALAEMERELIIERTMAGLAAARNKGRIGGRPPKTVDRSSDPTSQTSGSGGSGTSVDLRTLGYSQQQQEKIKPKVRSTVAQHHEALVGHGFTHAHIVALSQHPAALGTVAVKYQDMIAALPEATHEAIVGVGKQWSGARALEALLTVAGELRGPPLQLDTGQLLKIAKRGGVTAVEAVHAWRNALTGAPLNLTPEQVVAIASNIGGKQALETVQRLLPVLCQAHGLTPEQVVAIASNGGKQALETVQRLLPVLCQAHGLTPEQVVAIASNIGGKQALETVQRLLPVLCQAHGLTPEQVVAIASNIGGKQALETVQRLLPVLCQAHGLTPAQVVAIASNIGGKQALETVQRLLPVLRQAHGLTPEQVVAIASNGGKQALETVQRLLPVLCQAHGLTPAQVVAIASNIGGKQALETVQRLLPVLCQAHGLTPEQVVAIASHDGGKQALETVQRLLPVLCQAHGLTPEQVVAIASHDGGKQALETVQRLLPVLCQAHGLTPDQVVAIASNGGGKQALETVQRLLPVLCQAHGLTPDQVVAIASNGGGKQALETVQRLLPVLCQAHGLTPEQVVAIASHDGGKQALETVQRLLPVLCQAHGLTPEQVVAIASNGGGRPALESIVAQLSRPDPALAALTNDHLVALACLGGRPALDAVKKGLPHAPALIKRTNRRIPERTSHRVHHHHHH

T3: sN-TALER IV-3 (synthetic)
T3 chain: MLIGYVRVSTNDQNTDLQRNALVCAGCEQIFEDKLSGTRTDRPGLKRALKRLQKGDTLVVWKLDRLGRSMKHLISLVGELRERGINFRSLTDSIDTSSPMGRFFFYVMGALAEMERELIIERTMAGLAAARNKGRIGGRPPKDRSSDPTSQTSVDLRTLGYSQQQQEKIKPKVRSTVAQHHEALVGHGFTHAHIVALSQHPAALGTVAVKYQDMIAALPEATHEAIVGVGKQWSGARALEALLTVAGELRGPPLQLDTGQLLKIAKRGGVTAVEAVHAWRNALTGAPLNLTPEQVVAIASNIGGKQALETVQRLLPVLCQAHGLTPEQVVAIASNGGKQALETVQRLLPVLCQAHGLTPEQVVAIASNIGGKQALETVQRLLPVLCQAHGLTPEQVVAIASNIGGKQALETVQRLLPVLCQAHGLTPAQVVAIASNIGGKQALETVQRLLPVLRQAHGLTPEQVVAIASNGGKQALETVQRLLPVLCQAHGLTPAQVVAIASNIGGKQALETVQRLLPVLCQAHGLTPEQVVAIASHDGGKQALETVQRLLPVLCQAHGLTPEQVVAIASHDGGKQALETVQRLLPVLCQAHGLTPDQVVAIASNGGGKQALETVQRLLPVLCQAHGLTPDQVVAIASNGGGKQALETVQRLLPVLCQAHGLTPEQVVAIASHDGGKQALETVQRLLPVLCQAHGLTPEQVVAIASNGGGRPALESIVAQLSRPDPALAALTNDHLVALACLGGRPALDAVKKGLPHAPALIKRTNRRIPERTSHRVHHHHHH

T4: pN-TALER IV-1-EE2 (GinL7C7-EE2-TALE13) (synthetic)
T4 chain: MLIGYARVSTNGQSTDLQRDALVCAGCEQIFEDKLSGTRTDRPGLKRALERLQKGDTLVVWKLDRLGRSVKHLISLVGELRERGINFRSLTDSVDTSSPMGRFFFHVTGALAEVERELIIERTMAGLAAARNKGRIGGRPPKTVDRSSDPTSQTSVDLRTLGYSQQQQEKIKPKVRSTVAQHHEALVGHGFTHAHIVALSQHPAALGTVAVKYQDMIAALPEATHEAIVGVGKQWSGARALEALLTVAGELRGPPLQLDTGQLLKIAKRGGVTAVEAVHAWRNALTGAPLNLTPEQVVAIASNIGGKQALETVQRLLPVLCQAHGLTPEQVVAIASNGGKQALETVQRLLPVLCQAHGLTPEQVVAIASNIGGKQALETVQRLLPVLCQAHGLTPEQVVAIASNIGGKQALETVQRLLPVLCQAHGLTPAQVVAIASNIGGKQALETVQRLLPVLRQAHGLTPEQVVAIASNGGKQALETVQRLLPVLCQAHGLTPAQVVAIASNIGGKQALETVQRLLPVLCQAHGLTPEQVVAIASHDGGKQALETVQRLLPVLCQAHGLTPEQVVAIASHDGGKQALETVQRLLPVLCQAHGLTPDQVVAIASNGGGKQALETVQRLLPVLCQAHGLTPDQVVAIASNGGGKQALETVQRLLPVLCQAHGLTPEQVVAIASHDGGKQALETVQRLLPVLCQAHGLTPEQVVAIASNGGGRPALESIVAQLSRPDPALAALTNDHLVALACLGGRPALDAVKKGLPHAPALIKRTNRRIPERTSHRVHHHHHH

B1: Gin20TALE+12 (dsDNA)
DNA 1: AGAAGGTATTTATATAGGCACACTTATCCAAAACCATGGTTTACAGGACCACACGGTATATAAATACCTTCT
DNA 2: AGAAGGTATTTATATACCGTGTGGTCCTGTAAACCATGGTTTTGGATAAGTGTGCCTATATAAATACCTTCT
B2: R45 (12bp) (dsDNA)
DNA 1: AGAAGGTATTTATATCTCAAACCATGGTTTCACTTATAAATACCTTCT
DNA 2: AGAAGGTATTTATAAGTGAAACCATGGTTTGAGATATAAATACCTTCT
B3: R46 (10bp) (dsDNA)
DNA 1: AGAAGGTATTTATATCTCTAACCATGGTTACACTTATAAATACCTTCT
DNA 2: AGAAGGTATTTATAAGTGTAACCATGGTTAGAGATATAAATACCTTCT
B4: R48 (dsDNA)
DNA 1: AGAAGGTATTTATATCCAAAACTATAGTTTACAGTATAAATACCTTCT
DNA 2: AGAAGGTATTTATACTGTAAACTATAGTTTTGGATATAAATACCTTCT

What was measured:
Assay in all cases: cell_activity; E. coli
[1] = target: T1, sN-TALER IV-1 (GinH106Y-TALE13); details: tags: 6-His; chain copies: 2 per site, tetramer in synapsis (stated)
Method: (§1) To test for recombination, E. coli DH5alpha cells were co-transformed with different combinations of TALER expression construct and TALER reporter construct pairs (Tables 6 and 7). The N-TALER expression and reporter constructs were in an approximate 1:1 mass ratio during the transformation. The co-transformed bacteria were plated on media with chloramphenicol, kanamycin, and X-gal then incubated at 37° C. for 18 to 36 hours. Control samples consisted of transformations using the reporter construct alone. Control transformants were similarly plated. The bacterial transformation protocol was either heat shock or electroporation per standard molecular biology techniques.

[2] = target: T2, sN-TALER IV-2 (GinH106Y-TALE13); details: tags: 6-His
Method: as §1

sN-TALER IV-3 = target: T3, sN-TALER IV-3; details: tags: 6-His
Method: as §1

[3] = target: T4, pN-TALER IV-1-EE2 (GinL7C7-EE2-TALE13); details: tags: 6-His
Method: as §1
Two additional N-TALERs, based on N-TALER IV-1, were constructed wherein the GinH106Y recombinase catalytic domain was replaced with either the GinL7C7-EE2 catalytic domain or the GinL7C7-EE3 permissive recombinase catalytic domain. These N-TALERs were labeled pN-TALER IV-1-EE2 (SEQ ID NO:41) and pN-TALER IV-1-EE3 (SEQ ID NO:45), respectively. pN-TALER IV-1-EE2 was tested in combination with seventeen N-TALER reporter constructs and pN-TALER IV-1-EE3 was tested with three reporter constructs (Table 10).

[4] = target: T1, sN-TALER IV-1 (GinH106Y-TALE13); details: tags: 6-His; chain copies: 2 per site, tetramer in synapsis (stated)
Text: (§2) To determine how much of the Gin20 sequence is required for recombination when the central sequence is maintained at a permitted length, N-TALER reporters were generated with a 20 bp recombinase central sequence between the TALE binding sites, where either the central 12 bp, or the central 10 bp, or the central 8 bp of the recombinase core sequence were held constant, and the remaining nucleotides were different from the Gin sequence. The N-TALER reporter with 12 bp was designated R45, the N-TALER reporter with 10 bp was designated R46, and the N-TALER reporter with 8 bp was designated R47. A N-TALER reporter with a 10 bp site 1 and a 12 bp site 2 was designated R46B, and a N-TALER reporter with a T and an A flanking the central AT di-nucleotide was designated R48 (see Table 33). The various reporters, including the pSC101 Gin20TALE13+0 were co-transformed with either sN-TALER-IV-1 or pN-TALER-IV-1 and recombination, as determined by colony color, was scored (Table 33). For purposes of comparison, the GinE site that was used in the generation of the GinL7C7-EE2 recombinase domain (Gersbach et al., 2010) was also included.
(§3) To confirm that white colonies resulted from recombination, the colonies were analyzed by colony PCR and sequencing of the PCR product. For the reporter that retained 12 bp from the Gin site, 8 of 8 colonies analyzed had the predicted recombination product for both the sN-TALER-IV-1 chimera and the pN-TALER-IV-1chimera (16 colonies total analyzed, 8 each). Likewise, for the reporter that retained 8 bp from the Gin site co-transformed with the pN-TALER-IV-1 chimera, 14 of 14 colonies analyzed had the predicted recombination product.

[5] = target: T4, pN-TALER IV-1-EE2 (GinL7C7-EE2-TALE13); details: tags: 6-His
Text: as §2, §3

Binder | activity [1] [score] | activity [2] [score] | activity (sN-TALER IV-3) [score] | activity [3] [score] | activity [4] [score] | activity [5] [score]
B1 | 2 | 1 | 1 | 2 |  | 
B2 |  |  |  |  | 1.5 | 1
B3 |  |  |  |  | 4.5 | 1.5
B4 |  |  |  |  | 4.5 | 1.5
